Reference: patent US20150087577A1 (POLYPHOR, published 2015)
Bridges are numbered along the chain shown (N, C = ends). [ ]: non-standard residue; d: D form. Phe(4-F) = N[C@@H](Cc1ccc(F)cc1)C(=O)O; 2Nal = N[C@@H](Cc1ccc2ccccc2c1)C(=O)O; Cit = NC(=O)NCCC[C@H](N)C(=O)O

Target: human CXCR4 (human, UniProt P61073 1-352)
Assay: cell-based or functional assay

human CXCR4, sequence (P61073 whole entry): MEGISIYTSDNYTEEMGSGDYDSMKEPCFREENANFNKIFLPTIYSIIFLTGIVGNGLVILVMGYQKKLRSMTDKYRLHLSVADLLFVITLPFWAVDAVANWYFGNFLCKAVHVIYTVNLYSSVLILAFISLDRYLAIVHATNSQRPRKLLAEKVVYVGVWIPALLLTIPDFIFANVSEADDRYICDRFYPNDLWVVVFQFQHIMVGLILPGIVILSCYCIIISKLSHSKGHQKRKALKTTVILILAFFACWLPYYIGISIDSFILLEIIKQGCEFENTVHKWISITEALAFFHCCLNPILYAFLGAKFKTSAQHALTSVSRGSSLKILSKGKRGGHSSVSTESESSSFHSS

B1: Example 74 (peptide)
peptide: cyclo(YRPCRG[dP]RR[2Nal]CYQK[dP]P)
modifications: disulfide 4-11
SMILES: N=C(N)NCCC[C@@H]1NC(=O)[C@@H]2CSSC[C@H](NC(=O)[C@H](Cc3ccc4ccccc4c3)NC(=O)[C@H](CCCNC(=N)N)NC(=O)[C@H](CCCNC(=N)N)NC(=O)[C@H]3CCCN3C(=O)CNC1=O)C(=O)N[C@@H](Cc1ccc(O)cc1)C(=O)N[C@@H](CCC(N)=O)C(=O)N[C@@H](CCCCN)C(=O)N1CCC[C@@H]1C(=O)N1CCC[C@H]1C(=O)N[C@@H](Cc1ccc(O)cc1)C(=O)N[C@@H](CCCNC(=N)N)C(=O)N1CCC[C@H]1C(=O)N2
Which “IC50 (nM) Ca2+ assay (method 2)” value does the source give for B1 here?
Its value is 19.5 nM.

B2: Example 69 (peptide)
peptide: cyclo(YRRCRG[dP]RR[2Nal]CYQK[dP]P)
modifications: disulfide 4-11
SMILES: N=C(N)NCCC[C@@H]1NC(=O)[C@@H]2CSSC[C@H](NC(=O)[C@H](Cc3ccc4ccccc4c3)NC(=O)[C@H](CCCNC(=N)N)NC(=O)[C@H](CCCNC(=N)N)NC(=O)[C@H]3CCCN3C(=O)CNC1=O)C(=O)N[C@@H](Cc1ccc(O)cc1)C(=O)N[C@@H](CCC(N)=O)C(=O)N[C@@H](CCCCN)C(=O)N1CCC[C@@H]1C(=O)N1CCC[C@H]1C(=O)N[C@@H](Cc1ccc(O)cc1)C(=O)N[C@@H](CCCNC(=N)N)C(=O)N[C@@H](CCCNC(=N)N)C(=O)N2
How did the “IC50 (nM) Ca2+ assay (method 2)” value turn out when B2 was run?
Its value is 1.8 nM.

B3: Example 65 (peptide)
peptide: cyclo(IR[Cit]CRG[dP]RR[2Nal]CYQK[dP]P)
modifications: disulfide 4-11
SMILES: CC[C@H](C)[C@@H]1NC(=O)[C@@H]2CCCN2C(=O)[C@H]2CCCN2C(=O)[C@H](CCCCN)NC(=O)[C@H](CCC(N)=O)NC(=O)[C@H](Cc2ccc(O)cc2)NC(=O)[C@@H]2CSSC[C@H](NC(=O)[C@H](CCCNC(N)=O)NC(=O)[C@H](CCCNC(=N)N)NC1=O)C(=O)N[C@@H](CCCNC(=N)N)C(=O)NCC(=O)N1CCC[C@@H]1C(=O)N[C@@H](CCCNC(=N)N)C(=O)N[C@@H](CCCNC(=N)N)C(=O)N[C@@H](Cc1ccc3ccccc3c1)C(=O)N2
With B3 as the binder, how does the “IC50 (nM) Ca2+ assay (method 2)” value read?
The value was 3.9 nM.

B4: Example 72 (peptide)
peptide: cyclo(YRYCRG[dP]RR[2Nal]CYQK[dP]P)
modifications: disulfide 4-11
SMILES: N=C(N)NCCC[C@@H]1NC(=O)[C@@H]2CSSC[C@H](NC(=O)[C@H](Cc3ccc4ccccc4c3)NC(=O)[C@H](CCCNC(=N)N)NC(=O)[C@H](CCCNC(=N)N)NC(=O)[C@H]3CCCN3C(=O)CNC1=O)C(=O)N[C@@H](Cc1ccc(O)cc1)C(=O)N[C@@H](CCC(N)=O)C(=O)N[C@@H](CCCCN)C(=O)N1CCC[C@@H]1C(=O)N1CCC[C@H]1C(=O)N[C@@H](Cc1ccc(O)cc1)C(=O)N[C@@H](CCCNC(=N)N)C(=O)N[C@@H](Cc1ccc(O)cc1)C(=O)N2
For B4, which “IC50 (nM) Ca2+ assay (method 2)” value is on record?
Its value is 3.9 nM.

B5: Example 68 (peptide)
peptide: cyclo(ER[Cit]CRG[dP]RR[2Nal]CYQK[dP]P)
modifications: disulfide 4-11
SMILES: N=C(N)NCCC[C@@H]1NC(=O)[C@@H]2CSSC[C@H](NC(=O)[C@H](Cc3ccc4ccccc4c3)NC(=O)[C@H](CCCNC(=N)N)NC(=O)[C@H](CCCNC(=N)N)NC(=O)[C@H]3CCCN3C(=O)CNC1=O)C(=O)N[C@@H](Cc1ccc(O)cc1)C(=O)N[C@@H](CCC(N)=O)C(=O)N[C@@H](CCCCN)C(=O)N1CCC[C@@H]1C(=O)N1CCC[C@H]1C(=O)N[C@@H](CCC(=O)O)C(=O)N[C@@H](CCCNC(=N)N)C(=O)N[C@@H](CCCNC(N)=O)C(=O)N2
How did the “IC50 (nM) Ca2+ assay (method 2)” value turn out when B5 was run?
Its value is 1.1 nM.

B6: Example 70 (peptide)
peptide: cyclo(YRHCRG[dP]RR[2Nal]CYQK[dP]P)
modifications: disulfide 4-11
SMILES: N=C(N)NCCC[C@@H]1NC(=O)[C@@H]2CSSC[C@H](NC(=O)[C@H](Cc3ccc4ccccc4c3)NC(=O)[C@H](CCCNC(=N)N)NC(=O)[C@H](CCCNC(=N)N)NC(=O)[C@H]3CCCN3C(=O)CNC1=O)C(=O)N[C@@H](Cc1ccc(O)cc1)C(=O)N[C@@H](CCC(N)=O)C(=O)N[C@@H](CCCCN)C(=O)N1CCC[C@@H]1C(=O)N1CCC[C@H]1C(=O)N[C@@H](Cc1ccc(O)cc1)C(=O)N[C@@H](CCCNC(=N)N)C(=O)N[C@@H](Cc1c[nH]cn1)C(=O)N2
How did the “IC50 (nM) Ca2+ assay (method 2)” value turn out when B6 was run?
Its value is 19.5 nM.

B7: Example 3 (peptide)
peptide: cyclo(YR[Cit]FRRR[2Nal]FY[Cit]K[dP]P)
SMILES: N=C(N)NCCC[C@@H]1NC(=O)[C@H](CCCNC(=N)N)NC(=O)[C@H](Cc2ccccc2)NC(=O)[C@H](CCCNC(N)=O)NC(=O)[C@H](CCCNC(=N)N)NC(=O)[C@H](Cc2ccc(O)cc2)NC(=O)[C@@H]2CCCN2C(=O)[C@H]2CCCN2C(=O)[C@H](CCCCN)NC(=O)[C@H](CCCNC(N)=O)NC(=O)[C@H](Cc2ccc(O)cc2)NC(=O)[C@H](Cc2ccccc2)NC(=O)[C@H](Cc2ccc3ccccc3c2)NC(=O)[C@H](CCCNC(=N)N)NC1=O
B7 was tested. Which “IC50 (nM) Ca2+ assay (method 1)” value did it give?
Its value is 1000 nM.

B8: Example 73 (peptide)
peptide: cyclo(YRWCRG[dP]RR[2Nal]CYQK[dP]P)
modifications: disulfide 4-11
SMILES: N=C(N)NCCC[C@@H]1NC(=O)[C@@H]2CSSC[C@H](NC(=O)[C@H](Cc3ccc4ccccc4c3)NC(=O)[C@H](CCCNC(=N)N)NC(=O)[C@H](CCCNC(=N)N)NC(=O)[C@H]3CCCN3C(=O)CNC1=O)C(=O)N[C@@H](Cc1ccc(O)cc1)C(=O)N[C@@H](CCC(N)=O)C(=O)N[C@@H](CCCCN)C(=O)N1CCC[C@@H]1C(=O)N1CCC[C@H]1C(=O)N[C@@H](Cc1ccc(O)cc1)C(=O)N[C@@H](CCCNC(=N)N)C(=O)N[C@@H](Cc1c[nH]c3ccccc13)C(=O)N2
B8 was tested. Which “IC50 (nM) Ca2+ assay (method 2)” value did it give?
Its value is 8.8 nM.

B9: Example 76 (peptide)
peptide: cyclo(YR[Cit]CRG[dP][Phe(4-F)]R[2Nal]CYQK[dP]P)
modifications: disulfide 4-11
SMILES: N=C(N)NCCC[C@@H]1NC(=O)[C@@H]2CSSC[C@H](NC(=O)[C@H](Cc3ccc4ccccc4c3)NC(=O)[C@H](CCCNC(=N)N)NC(=O)[C@H](Cc3ccc(F)cc3)NC(=O)[C@H]3CCCN3C(=O)CNC1=O)C(=O)N[C@@H](Cc1ccc(O)cc1)C(=O)N[C@@H](CCC(N)=O)C(=O)N[C@@H](CCCCN)C(=O)N1CCC[C@@H]1C(=O)N1CCC[C@H]1C(=O)N[C@@H](Cc1ccc(O)cc1)C(=O)N[C@@H](CCCNC(=N)N)C(=O)N[C@@H](CCCNC(N)=O)C(=O)N2
How did the “IC50 (nM) Ca2+ assay (method 2)” value turn out when B9 was run?
Its value is 5.6 nM.

B10: Example 75 (peptide)
peptide: cyclo(YRECRG[dP]RR[2Nal]CYQK[dP]P)
modifications: disulfide 4-11
SMILES: N=C(N)NCCC[C@@H]1NC(=O)[C@@H]2CSSC[C@H](NC(=O)[C@H](Cc3ccc4ccccc4c3)NC(=O)[C@H](CCCNC(=N)N)NC(=O)[C@H](CCCNC(=N)N)NC(=O)[C@H]3CCCN3C(=O)CNC1=O)C(=O)N[C@@H](Cc1ccc(O)cc1)C(=O)N[C@@H](CCC(N)=O)C(=O)N[C@@H](CCCCN)C(=O)N1CCC[C@@H]1C(=O)N1CCC[C@H]1C(=O)N[C@@H](Cc1ccc(O)cc1)C(=O)N[C@@H](CCCNC(=N)N)C(=O)N[C@@H](CCC(=O)O)C(=O)N2
With B10 as the binder, how does the “IC50 (nM) Ca2+ assay (method 2)” value read?
The value was 3.5 nM.

B11: Example 4 (peptide)
peptide: cyclo(YR[Cit]VRRR[2Nal]FY[Cit]K[dP]P)
SMILES: CC(C)[C@@H]1NC(=O)[C@H](CCCNC(N)=O)NC(=O)[C@H](CCCNC(=N)N)NC(=O)[C@H](Cc2ccc(O)cc2)NC(=O)[C@@H]2CCCN2C(=O)[C@H]2CCCN2C(=O)[C@H](CCCCN)NC(=O)[C@H](CCCNC(N)=O)NC(=O)[C@H](Cc2ccc(O)cc2)NC(=O)[C@H](Cc2ccccc2)NC(=O)[C@H](Cc2ccc3ccccc3c2)NC(=O)[C@H](CCCNC(=N)N)NC(=O)[C@H](CCCNC(=N)N)NC(=O)[C@H](CCCNC(=N)N)NC1=O
For B11, which “IC50 (nM) Ca2+ assay (method 1)” value is on record?
The value was 2540 nM.

B12: Example 66 (peptide)
peptide: cyclo(WR[Cit]CRG[dP]RR[2Nal]CYQK[dP]P)
modifications: disulfide 4-11
SMILES: N=C(N)NCCC[C@@H]1NC(=O)[C@@H]2CSSC[C@H](NC(=O)[C@H](Cc3ccc4ccccc4c3)NC(=O)[C@H](CCCNC(=N)N)NC(=O)[C@H](CCCNC(=N)N)NC(=O)[C@H]3CCCN3C(=O)CNC1=O)C(=O)N[C@@H](Cc1ccc(O)cc1)C(=O)N[C@@H](CCC(N)=O)C(=O)N[C@@H](CCCCN)C(=O)N1CCC[C@@H]1C(=O)N1CCC[C@H]1C(=O)N[C@@H](Cc1c[nH]c3ccccc13)C(=O)N[C@@H](CCCNC(=N)N)C(=O)N[C@@H](CCCNC(N)=O)C(=O)N2
Which “IC50 (nM) Ca2+ assay (method 2)” value does the source give for B12 here?
The value was 3.8 nM.

B13: Example 67 (peptide)
peptide: cyclo(TR[Cit]CRG[dP]RR[2Nal]CYQK[dP]P)
modifications: disulfide 4-11
SMILES: C[C@@H](O)[C@@H]1NC(=O)[C@@H]2CCCN2C(=O)[C@H]2CCCN2C(=O)[C@H](CCCCN)NC(=O)[C@H](CCC(N)=O)NC(=O)[C@H](Cc2ccc(O)cc2)NC(=O)[C@@H]2CSSC[C@H](NC(=O)[C@H](CCCNC(N)=O)NC(=O)[C@H](CCCNC(=N)N)NC1=O)C(=O)N[C@@H](CCCNC(=N)N)C(=O)NCC(=O)N1CCC[C@@H]1C(=O)N[C@@H](CCCNC(=N)N)C(=O)N[C@@H](CCCNC(=N)N)C(=O)N[C@@H](Cc1ccc3ccccc3c1)C(=O)N2
With B13 as the binder, how does the “IC50 (nM) Ca2+ assay (method 2)” value read?
Its value is 2.4 nM.

B14: Example 71 (peptide)
peptide: cyclo(YRICRG[dP]RR[2Nal]CYQK[dP]P)
modifications: disulfide 4-11
SMILES: CC[C@H](C)[C@@H]1NC(=O)[C@H](CCCNC(=N)N)NC(=O)[C@H](Cc2ccc(O)cc2)NC(=O)[C@@H]2CCCN2C(=O)[C@H]2CCCN2C(=O)[C@H](CCCCN)NC(=O)[C@H](CCC(N)=O)NC(=O)[C@H](Cc2ccc(O)cc2)NC(=O)[C@@H]2CSSC[C@H](NC1=O)C(=O)N[C@@H](CCCNC(=N)N)C(=O)NCC(=O)N1CCC[C@@H]1C(=O)N[C@@H](CCCNC(=N)N)C(=O)N[C@@H](CCCNC(=N)N)C(=O)N[C@@H](Cc1ccc3ccccc3c1)C(=O)N2
Which “IC50 (nM) Ca2+ assay (method 2)” value does the source give for B14 here?
Its value is 2.7 nM.
